Tested on: MS2 coat protein
Assay: apparent KD of MS2 coat protein; designed switch direction (-1 OFF switch, 1 ON switch): -1; higher = weaker reporter binding
In short: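 SNAP-549-labelled MS2 coat protein was titrated, doubling from 0.7 or 1.5 nM to 3 µM, over designed RNA switches transcribed on Illumina chips by stalled E. coli RNA polymerase. Runs were done without input, with 200 uM small-molecule ligand, or with an oligonucleotide input. Apparent KD is the per-design median over clusters of curve-fitted normalised fluorescence.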

[1] = Eterna round: R95, input ligand: FMN 200 uM
[2] = Eterna round: R95, input ligand: microRNA oligo, concentration not stated
[3] = Eterna round: R95, input ligand: none
[4] = input ligand: microRNA oligo, concentration not stated

Sequence	apparent KD of MS2 coat protein [1] [nM]	apparent KD of MS2 coat protein [2] [nM]	apparent KD of MS2 coat protein [3] [nM]	apparent KD of MS2 coat protein (input ligand: FMN 200 uM) [nM]	apparent KD of MS2 coat protein (input ligand: none) [nM]	apparent KD of MS2 coat protein [4] [nM]
CUGGUCCGAGGAUAUAUUAAGUGAUACAUGAGGAUCACCCAUGUAAUUUGAUGGAUAUAAAUAGAAGGCGGACUAG [Mat - Exclusion 5 - JL mod - D43] (puzzle: Exclusion 5)	59.8	37.1	43.8	–	–	–
CGCUAAGCUAUGCUCGUCAACAUGAGGAUCACCCAUGUGCACUACGGAAGGUACACAACGUACCAAAGACCUCAAAG [Eternabot (Original) Solution 27] (Eterna round: R97, puzzle: Sensor, turn-off variant 1)	–	–	–	185	119	–
AGAGCACAUGAGGAUCACCCAUGUCAGGAUAUGCAAGAAAGAAAGAAAGAAAGAAAGAGCAGAAGGGACAAAUA [?solved?] (puzzle: Exclusion 1)	34.9	34.2	43.2	–	–	–
GAGUAGUAAGGAUAUGUCUCUGGUGGCUACGGUCACUAGAGGCAGAAGGUACAUGAGGAUCACCCAUGUUCCUC [ExDelusion 8 - Jieux - Exclusion 4] (Eterna round: R97, puzzle: Exclusion 4)	–	–	–	186	55.8	–
UCAACGCAAGGAUAUACUUGCGGUGAUGUUCGAAUUCUUCUACUUGAGGAUCACCCAAGUAGAAGGUGCGAUGA [jl-ex2.4.62 ViennaUCT mod] (Eterna round: R97, puzzle: Exclusion 2)	–	–	–	12.5	13.4	–
GCUAACCGAGGAUAUACAUGAGGAUCACCCAUGUUCGAUAUCCUCAUUAGAACUACAUGUAGAAGGCGGUAAGC [Eternabot (Original) Solution 2] (Eterna round: R97, puzzle: Exclusion 3)	–	–	–	15.2	13.8	–
AAAAGUCCGGAGGAUAUCCACAAGCUCGGGAAAGGAGAAGGCCGGACAUGAGGAUCACCCAUGUGUCUUCUUGC [Rebila] (puzzle: Exclusion 6)	358	63	94.5	–	–	–
UUGAUGUCAUCAGGAUAUAGUAUUUAAGACAUAUCUUCUUUCAAACAUGAGGAUCACCCAUGUCGCUAGAAGGGAUGAUUGAUU [JR_ExcNG2_Sub084] (Eterna round: R96, puzzle: Exclusion NG 2)	–	–	–	–	–	11.9
UAUGAUUUAGGAUAUUGUACUGCUGACAUGAGGAUCACCCAUGUAUGCUAACUCGGCCGUCGAGAAGGAGAUUAUG [BotMod 29 - Jieux - Exclusion 5] (Eterna round: R97, puzzle: Exclusion 5)	–	–	–	37.9	39.4	–
CCGAAACAUGAGGAUCACCCAUGUGAGGAUAUGAGCGUCUAGUUGAGAGAUUGGACGCUCAGAAGGCACAUUGG [JR_Ex1_Sub075] (Eterna round: R97, puzzle: Exclusion 1)	–	–	–	76.7	121	–
AGUAACUAUCACGAAAGUGAUAGUUACAACAAGUGAUAAACAUGAGGAUCACCCAUGUCCUCAUUUGCUCGUCUUAU [Sensor 3 - 9] (puzzle: Sensor v3, turn-off variant 2)	256	283	326	–	–	–
AGAGUGCUGCGAGGAUAUACAUGAGGAUCACCCAUGUUUACCUGUGAGGCAAAGCCUCACAGGUAGUAGAAGGCGCAGUACUCA [Mat - Exclusion NG 2 - Mod of JL - D43] (Eterna round: R96, puzzle: Exclusion NG 2)	–	–	–	14.6	12.3	14.3
ACAUGUUAUCCAUGAUAUCACAUGAGGAUCACCCAUGUUAUGGCGAUUUUGAGGUGUAAGUUUUGUGCUCGUCUUAU [JR_STOV1_Sub057] (Eterna round: R97, puzzle: Sensor, turn-off variant 1)	–	–	–	80.1	89.4	–
CCUACUCCCGUUAGGAUAUGUGGAGGCGUACCUCCGUAGAAGGAACAUGAGGAUCACCCAUGUCGCUGUCAUGC [Eternabot (L2) Solution 90] (Eterna round: R97, puzzle: Brourd's mod of Exclusion 4)	–	–	–	18.4	19.9	–
ACAUGUCAUCGAGGAUAUUGGACACAUGAGGAUCACCCAUGUACUCGGAUGCUCUAGCAUGAGUUCGAGAAGGCGAUGUACAUU [Ex NG2 #79] (Eterna round: R96, puzzle: Exclusion NG 2)	–	–	–	1350	593	234
GUAGAGUAAGGAUAUGGUGAAUAGGAUAGAAUGGUUAGAAACUAGAAGGUACAUGAGGAUCACCCAUGUAAUGU [Excluse me!!!! 23 - Jieux - Exclusion 4] (puzzle: Exclusion 4)	–	20.8	–	–	–	–
GGCAUACCACAAGCUUUUUACAUGAGGAUCACCCAUGUGGUUUUUAGUCUUAUCCCGGGCCCGAUAUCGGGCCCGGG [-33.9, -54.7, A 19%] (Eterna round: R97, puzzle: Sensor, turn-off variant 1)	–	–	–	36.7	38.3	–

Sequence	apparent KD of MS2 coat protein [1] [nM]	apparent KD of MS2 coat protein [2] [nM]	apparent KD of MS2 coat protein [3] [nM]	apparent KD of MS2 coat protein (input ligand: FMN 200 uM) [nM]	apparent KD of MS2 coat protein (input ligand: none) [nM]	apparent KD of MS2 coat protein [4] [nM]
UCCUUACUGGUCAGGAUAUACAUUCGCGAGUGGGUGUAGAAGGGACAUGAGGAUCACCCAUGUACGUUACAUCC [alecazam54f] (Eterna round: R97, puzzle: Brourd's mod of Exclusion 4)	–	–	–	18.3	20.5	–
GGUACUAUCACCUGAGUGGUAGUGCCAUAAGCUUGUGAUACAUGAGGAUCACCCAUGUCCUCAUUUGCUCGUCUUAU [JL-sv3-2.27 JL mod] (puzzle: Sensor v3, turn-off variant 2)	486	394	–	–	–	–
UUUUAACAUGAGGAUCACCCAUGUGAGGAUAUCGAAAUUUAUAUUUAUAUUAAUAUAUCGAGAAGGCACAUUUU [JMF 80] (puzzle: Exclusion 1)	–	93.1	–	–	–	–
UUAUACGCUGAGGAUAUCUUCACUGAGAGGUGAAGAGAAGGCGGUACAUGAGGAUCACCCAUGUCUAUGGGCAG [Ex-6 Malc#20] (puzzle: Exclusion 6)	376	312	479	–	–	–
CUUGUUUAUGUAGGAUAUACAUGAGGAUCACCCAUAGAAGGACAUGAGGAUCACCCAUGUAUUGCGGUCUGCGUUCAGAUCGCA [salish99_ExNG1_r04_101] (Eterna round: R96, puzzle: Exclusion NG 1)	–	–	–	337	335	298
CCGCAACAUGAGGAUCACCCAUGUCAGGAUAUCGUACGUUCGUCGAUAGACGAUCGUACGAGAAGGGUGUGCGG [Mat - Exclusion 1 - Eli Mod - D35] (Eterna round: R97, puzzle: Exclusion 1)	–	–	–	81.5	103	–
CCUUGUCUGAAGGAUAUCCGCCUAAAAGGCAAGGGAGAAGGUUAGACAUGAGGAUCACCCAUGUGCCGGUGUAA [EX6 A.26] (Eterna round: R97, puzzle: Exclusion 6)	–	–	–	21.7	25.1	–
UCUUCAGCCAAGUUCACAUACAUGAGGAUCACCCAUGUUGCGUAACGCAUGCAUAUCCUAGUUGCUCGUUCUACAGU [Eternabot (L1) Solution 6] (Eterna round: R97, puzzle: Sensor, turn-off variant 1)	–	–	–	26.4	33.1	–
CGUGCGUAUGUGAGGAUAUGCUGGUCCUUGGAUCGGCAGAAGGCACAUGAGGAUCACCCAUGUGGUGUCGUUCG [salish99_Bmod_ex4_093] (puzzle: Brourd's mod of Exclusion 4)	–	126	–	–	–	–
GGAAGACAUGAGGAUCACCCAUGUAAGGAUAUCGGAGGUAAGGGAGGAAGGAGAUAGGCGAGAAGGUACAGGUG [JR_Exclu1_Sub094] (puzzle: Exclusion 1)	47.2	35.5	53	–	–	–
CUUCGUAUAGAGGAUAUAGGUUACCUCGGUAUCCUAGAAGGCUGUACAUGAGGAUCACCCAUGUACUUCAGAUC [Exclusion 6 - B - 13:b] (puzzle: Exclusion 6)	–	12.7	–	–	–	–
CGAUAGAUAGGAUAUACAUGAGGAUCACCCAUGUGAACGGGUAGAUUUGUCAACUGAAGUAGAAGGAUCGUCGC [Eternabot (L2) Solution 64] (Eterna round: R97, puzzle: Exclusion 3)	–	–	–	132	761	–
CACUGCAGGUUAGGAUAUGGACAACAACAUGAGGAUCACCCAUGUAUGUAUGAACAUGUUGAUCACCAGAAGGAACACAUCAGU [Exclusion NG 2 S2] (Eterna round: R96, puzzle: Exclusion NG 2)	–	–	–	12.2	11.8	9.35
GAUAGAGAGCAGGAUAUCUUGGAUAAGUAUAGUAGAGAAGGGCUCACAUGAGGAUCACCCAUGUGGUCCAAGAU [JL Dibiri mod 12] (puzzle: Exclusion 6)	28	14.8	15.8	–	–	–
UGUCUCCUCGUCAGGAUAUUUCGUUGUGCAGACUGAAAGAAGGGACAUGAGGAUCACCCAUGUACCUCGUCGGU [Eternabot (L2) Solution 98] (Eterna round: R97, puzzle: Brourd's mod of Exclusion 4)	–	–	–	22.3	16.9	–
CUCUUGGCAGGAUAUGCUCUCUUAGACAUGAGGAUCACCCAUGUGCUCAUUCCUUCUUUUGCAGAAGGGCCUUAAC [JR_E5_Sub047] (puzzle: Exclusion 5)	–	63.9	–	–	–	–
UUUUAGCAAGCGAGAUCCCACAUGAGGAUCACCCAUGUGCAUCCAGAAUUACUGGGUGCAAAAGCUCGUCUUAUAUA [Winner reversed engineered] (Eterna round: R97, puzzle: Sensor, turn-off variant 1)	–	–	–	54.9	50.1	–
